Measurements taken from patent publication US20160152725A1 (Memorial Sloan Kettering, published 2016).
Substitutions are numbered along the chain they refer to. Names and notes keep the numbering of the source.

What was measured:
[1] = molecular target: HLA-A2 molecule on the surface of tumor cell lines (human); assay: flow cytometry on THP-1 cells (Leukemia)
[2] = molecular target: HLA-A2 molecule on the surface of tumor cell lines (human); assay: flow cytometry on BV-173 cells (Leukemia)
[3] = molecular target: HLA-A2 molecule on the surface of tumor cell lines (human); assay: flow cytometry on SKOV-3 cells (Ovarian)
[4] = molecular target: HLA-A2 molecule on the surface of tumor cell lines (human); assay: flow cytometry on K562 cells (Leukemia)
[5] = molecular target: HLA-A2 molecule on the surface of tumor cell lines (human); assay: flow cytometry on OVCAR-3 cells (Ovarian)
[6] = molecular target: HLA-A2 molecule on the surface of tumor cell lines (human); assay: flow cytometry on SKHEP-1 cells (Liver)
[7] = molecular target: HLA-A2 molecule on the surface of tumor cell lines (human); assay: flow cytometry on SK-ES-1 cells (Ewing's sarcoma)
[8] = molecular target: HLA-A2 molecule on the surface of tumor cell lines (human); assay: flow cytometry on OVCAR3-pp65 cells (Ovarian)
[9] = molecular target: HLA-A2 molecule on the surface of tumor cell lines (human); assay: flow cytometry on MDA-MB-361(HTB-27) cells (Breast)
[10] = molecular target: HLA-A2 molecule on the surface of tumor cell lines (human); assay: flow cytometry on HTB37-pp65/GFP cells (Colon)
[11] = molecular target: HLA-A2 molecule on the surface of tumor cell lines (human); assay: flow cytometry on SW480 cells (Colon)
[12] = molecular target: HLA-A2 molecule on the surface of tumor cell lines (human); assay: flow cytometry on JN-DSRCT cells (Desmoplastic small round cell tumor)
[13] = molecular target: HLA-A2 molecule on the surface of tumor cell lines (human); assay: flow cytometry on K562-HLA-A2 cells (Leukemia)
[14] = molecular target: HLA-A2 molecule on the surface of tumor cell lines (human); assay: flow cytometry on NCI-H345 cells (Small cell lung cancer)
[15] = molecular target: HLA-A2 molecule on the surface of tumor cell lines (human); assay: flow cytometry on MDA-MB-468(HTB-132) cells (Breast)
[16] = molecular target: HLA-A2 molecule on the surface of tumor cell lines (human); assay: flow cytometry on NCI-H522 cells (Non-small cell lung cancer)
[17] = molecular target: HLA-A2 molecule on the surface of tumor cell lines (human); assay: flow cytometry on Colo 205 cells (Colon)
[18] = molecular target: HLA-A2 molecule on the surface of tumor cell lines (human); assay: flow cytometry on Caco-2 (HTB-37) cells (Colon)
[19] = molecular target: HLA-A2 molecule on the surface of tumor cell lines (human); assay: flow cytometry on SKNLD cells (NB)
[20] = molecular target: HLA-A2 molecule on the surface of tumor cell lines (human); assay: flow cytometry on SKNJB cells (NB)
[21] = molecular target: HLA-A2 molecule on the surface of tumor cell lines (human); assay: flow cytometry on MCF-7 cells (Breast)
[22] = molecular target: HLA-A2 molecule on the surface of tumor cell lines (human); assay: flow cytometry on HepG2 cells (Liver)
[23] = molecular target: HLA-A2 molecule on the surface of tumor cell lines (human); assay: flow cytometry on MDA-MB-231(HTB-26) cells (Breast)
[24] = molecular target: HLA-A2 molecule on the surface of tumor cell lines (human); assay: flow cytometry on JMN cells (Mesothelioma)
[25] = molecular target: HLA-A2 molecule on the surface of tumor cell lines (human); assay: flow cytometry on SKN-JC-1 cells (NB)
[26] = molecular target: HLA-A2 molecule on the surface of tumor cell lines (human); assay: flow cytometry on BA25-69 cells (Leukemia)
[27] = molecular target: HLA-A2 molecule on the surface of tumor cell lines (human); assay: flow cytometry on BA25-17 cells (Leukemia)
[28] = molecular target: HLA-A2 molecule on the surface of tumor cell lines (human); assay: flow cytometry on U87 cells (Glioblastoma)
[29] = molecular target: HLA-A2 molecule on the surface of tumor cell lines (human); assay: flow cytometry on SKBR3 cells (Breast)
[30] = molecular target: HLA-A2 molecule on the surface of tumor cell lines (human); assay: flow cytometry on SKN-JC-2 cells (NB)
[31] = molecular target: HLA-A2 molecule on the surface of tumor cell lines (human); assay: flow cytometry on Molt-4 cells (Leukemia)
[32] = molecular target: HLA-A2 molecule on the surface of tumor cell lines (human); assay: flow cytometry on U251 cells (Glioblastoma)
[33] = molecular target: HLA-A2 molecule on the surface of tumor cell lines (human); assay: flow cytometry on LAN-1 cells (NB)
[34] = molecular target: HLA-A2 molecule on the surface of tumor cell lines (human); assay: flow cytometry on U2 OS cells (Osteosarcoma)
[35] = molecular target: HLA-A2 molecule on the surface of tumor cell lines (human); assay: flow cytometry on SKMEL-5 cells (Melanoma)
[36] = molecular target: T1, biotinylated HLA-A2/WT1126 (…) monomer (human, biotin at a specific biotinylation site at the C-terminus); assay: SPR Biacore T100; biotinylated pMHC captured, antibody injected; 1:1 fit
T1 construct: also called HLA-A2-WT1 monomer; WT1126/HLA-A2
Method: (§1) Kinetics and affinities of various antibodies and WT1₁₂₆/HLA-A2 were analyzed by surface plasmon resonance technology using a Biacore T100 instrument (GE healthcare). Biotinylated WT1₁₂₆/HLA-A2 was captured by streptavidin-fusion protein on a sensor chip (CM5). A control reference surface was prepared for nonspecific binding and refractive index changes. For analysis of the kinetics of interactions, varying concentrations of antibodies were injected at flow rate of 30 μl/min using a running buffer containing 10 mM HEPES, 150 mM NaCl, 3 mM EDTA, and 0.05% Surfactant P-20 (pH 7.4). The association and dissociation phase data were fitted simultaneously to a 1:1 model by using BIAevaluation 3.2. All the experiments were done at 25° C.

[37] = molecular target: HLA-A2/WT1 235-243 (…) complex (human, biotin at a specific biotinylation site at the C-terminus); assay: ELISA on wells coated with the named HLA-A2/peptide monomer, HRP anti-Flag detection, OD 490 nm
[38] = molecular target: HLA-A2/WT1 187-195 (…) complex (human, biotin at a specific biotinylation site at the C-terminus); assay: as above
[39] = molecular target: T2, HLA-A2/CDR2 (…) tetramer (human); assay: flow cytometry of scFv-displaying yeast, negative control HLA-A2-CDR2 tetramer (y, Binding) against scFv expression (x)
T2 construct: Peptide from cerebellar degeneration-related protein 2; also called negative control (HLA-A2-CDR2) tetramer; irrelevant HLA-A2/CDR2-derived peptide

[40] = molecular target: T1, biotinylated HLA-A2/WT1126 (…) monomer; assay: SPR (Biacore)
Method: as §1

[41] = molecular target: T3, HLA-A2/pp65 (…) on T2 cells (human; human cytomegalovirus); assay: flow cytometry on peptide-loaded T2 cells
T3 construct: also called T2 cells loaded with control peptide pp65

[42] = molecular target: T1, biotinylated HLA-A2/WT1126 (…) monomer; assay: ELISA: wells coated with HLA-A2-WT1 (…) monomer, serially diluted scFv, HRP anti-Flag detection, OD 490 nm
Method: (§2) The specificity of individual phage clones, soluble scFv and scFv-Fc antibodies was assessed by ELISA at RT with indirectly coated HLA-A2/peptide complexes. Vinyl flat bottom microtiter plates (Thermo Fisher) were used for ELISA assays. Plates were initially coated overnight at 4° C. with BSA-biotin (10 g/ml; 50 μl/well). The next day, the contents were discarded and the plates incubated at RT with streptavidin (10 g/ml; 50 μl/well) for 1 h. The contents were discarded and the plates incubated with recombinant biotinylated HLA-A2/peptide complexes (5 μg/ml; 50 μl/well) at RT for 1 h. The plates were then incubated with 2% milk PBS (150 μl/well) at RT for 1 h. After blocking, the plates were washed 3 times with PBS and then incubated with bacterial supernatant from their respective HB2151 culture plate wells, purified scFv, or purified scFv-Fc at RT for 1 h. After the contents were discarded, the plates were washed 5 times with PBS, and then incubated with a horse radish peroxidase (HRP) conjugated mouse-anti-Flag tag antibody (1:5000 dilution, Sigma Aldrich) to detect the scFv, or a HRP conjugated goat-anti-human Fc antibody (0.5 μg/ml, Jackson Immunoresearch Laboratories) to detect the scFv-Fc. […]

[43] = molecular target: T2, HLA-A2/CDR2 (…) tetramer; assay: flow cytometry of CAR NK-92 cells, control HLA-A2/CDR2 tetramer (y) against GFP (x)
[44] = molecular target: T1, biotinylated HLA-A2/WT1126 (…) monomer; assay: ELISA: wells coated with HLA-A2-WT1 ([..]) monomer, serially diluted scFv, HRP anti-Flag detection, OD 490 nm
Method: as §2

[45] = molecular target: T4, HLA-A2 on T2 cells (human); assay: T2 cells pulsed with peptide, staining with anti-HLA-A2 BB7.2
T4 construct: No peptide added; also called T2 cells alone; T2 cells without peptide

Molecule: BB7.2 (antibody)
- Ratio (BB7.2/isotype) of mean fluorescence intensity [1]: 53.9
- Ratio (BB7.2/isotype) of mean fluorescence intensity [2]: 209
- Ratio (BB7.2/isotype) of mean fluorescence intensity [3]: 1
- Ratio (BB7.2/isotype) of mean fluorescence intensity [4]: 1.1
- Ratio (BB7.2/isotype) of mean fluorescence intensity [5]: 7.8
- Ratio (BB7.2/isotype) of mean fluorescence intensity [6]: 28.3
- Ratio (BB7.2/isotype) of mean fluorescence intensity [7]: 7.7
- Ratio (BB7.2/isotype) of mean fluorescence intensity [8]: 10
- Ratio (BB7.2/isotype) of mean fluorescence intensity [9]: 0.9
- Ratio (BB7.2/isotype) of mean fluorescence intensity [10]: 10.9
- Ratio (BB7.2/isotype) of mean fluorescence intensity [11]: 40.5
- Ratio (BB7.2/isotype) of mean fluorescence intensity [12]: 5.1
- Ratio (BB7.2/isotype) of mean fluorescence intensity [13]: 28.8
- Ratio (BB7.2/isotype) of mean fluorescence intensity [14]: 6.2
- Ratio (BB7.2/isotype) of mean fluorescence intensity [15]: 1.1
- Ratio (BB7.2/isotype) of mean fluorescence intensity [16]: 15.8
- Ratio (BB7.2/isotype) of mean fluorescence intensity [17]: 32.6
- Ratio (BB7.2/isotype) of mean fluorescence intensity [18]: 26.8
- Ratio (BB7.2/isotype) of mean fluorescence intensity [19]: 0.9
- Ratio (BB7.2/isotype) of mean fluorescence intensity [20]: 6.4
- Ratio (BB7.2/isotype) of mean fluorescence intensity [21]: 9.9
- Ratio (BB7.2/isotype) of mean fluorescence intensity [22]: 14.4
- Ratio (BB7.2/isotype) of mean fluorescence intensity [23]: 111
- Ratio (BB7.2/isotype) of mean fluorescence intensity [24]: 165
- Ratio (BB7.2/isotype) of mean fluorescence intensity [25]: 86.8
- Ratio (BB7.2/isotype) of mean fluorescence intensity [26]: 114
- Ratio (BB7.2/isotype) of mean fluorescence intensity [27]: 118
- Ratio (BB7.2/isotype) of mean fluorescence intensity [28]: 77.5
- Ratio (BB7.2/isotype) of mean fluorescence intensity [29]: 1.1
- Ratio (BB7.2/isotype) of mean fluorescence intensity [30]: 53.3
- Ratio (BB7.2/isotype) of mean fluorescence intensity [31]: 1.1
- Ratio (BB7.2/isotype) of mean fluorescence intensity [32]: 16.2
- Ratio (BB7.2/isotype) of mean fluorescence intensity [33]: 4.5
- Ratio (BB7.2/isotype) of mean fluorescence intensity [34]: 21.7
- Ratio (BB7.2/isotype) of mean fluorescence intensity [35]: 32.1

B1: Clone45 scFv (scFv)
scFv: EVQLLESGGGLVQPGGSLRLSCAASGFTFSSYAMSWVRQAPGKGLEWVSQIDPWGQETLYADSVKGRFTISRDNSKNTLYLQMNSLRAEDTAVYYCAKLTGRFDYWGQGTLVTVSSGGGGSGGGGSGGGGSTDIQMTQSPSSLSASVGDRVTITCRASQSISSYLNWYQQKPGKAPKLLIYSASQLQSGVPSRFSGSGSGTDFTLTISSLQPEDFATYYCQQGPGTPNTFGQGTKVEIKRA
notes: also called scFv Clone45; parental Clone45
- Kd [36]: 0.263 µM
- binding result [37]: no binding
- binding result [38]: no binding
- binding result [39]: no binding
- Kd [40]: 0.3 µM
- binding result [41]: no binding

B2: Q1L scFv (scFv)
scFv: B1 scFv with Q50L
notes: Clone45 with VH-Q50L; Soluble scFv; also called scFv Q1L
- Kd [36]: 0.0583 µM
- koff [36]: 0.0055 s⁻¹
- kon [36]: 94300 M⁻¹ s⁻¹

B3: Q2L scFv (scFv)
scFv: B1 scFv with Q50L, Q185L
notes: Clone45 with VH-Q50L and VL-Q53L; Soluble scFv; also called scFv Q2L
- Kd [36]: 0.00308 µM
- EC50 (read off the curve) [42]: ~0.1 µM
- binding result [37]: no binding
- binding result [38]: no binding

B4: Q2L-CAR (other)
chain: B1 scFv with Q50L, Q185L
notes: Chimeric antigen receptor on the surface of human T cells or NK-92-MI cells; also called anti-HLA-A2/WT1126 CAR; NK-92-MI-scFv(Q2L); not shown: hinge region, CD8 alpha transmembrane domain, 4-1BB and CD3 zeta chain
- binding result [43]: no binding

B5: S3.1 scFv (scFv)
scFv: B1 scFv with Q50L, R87G, S209N
notes: Soluble scFv, Ni-NTA purified, detected with anti-Flag
- Kd [36]: 0.0129 µM
- binding result [37]: no binding
- binding result [38]: no binding
- EC50 (read off the curve) [44]: ~0.06 µM

B6: S3.3 scFv (scFv)
scFv: B1 scFv with Q50L, D133N, Q185L, S197N
notes: as for B5
- Kd [36]: 0.00243 µM
- binding result [37]: no binding
- binding result [38]: no binding
- EC50 (read off the curve) [44]: ~0.04 µM

B7: S3.6 scFv (scFv)
scFv: B1 scFv with Q50L, S163N, D202V
notes: as for B5
- Kd [36]: 0.0141 µM
- binding result [37]: no binding
- binding result [38]: no binding

Molecule: RMFPNAPYL (also called WT1 peptide) [WT1126 peptide (RMFPNAPYL) by itself]
- binding result [45]: binds

Molecule: AMFPNAPYL (also called A1) [WT1126-Arg1Ala peptide]
- binding result [45]: binds

Molecule: RMFPAAPYL (also called A5) [WT1126-Asn5Ala peptide]
- binding result [45]: binds

Molecule: RMFPNAPAL (also called A8) [WT1126-Tyr8Ala peptide]
- binding result [45]: binds
